Values quoted from earlier work, collected in publication PMC9458874.

Biological target: HAB1 (Arabidopsis thaliana) (UniProt Q9CAJ0)
UniProt Q9CAJ0, sequence (Q9CAJ0 23-511): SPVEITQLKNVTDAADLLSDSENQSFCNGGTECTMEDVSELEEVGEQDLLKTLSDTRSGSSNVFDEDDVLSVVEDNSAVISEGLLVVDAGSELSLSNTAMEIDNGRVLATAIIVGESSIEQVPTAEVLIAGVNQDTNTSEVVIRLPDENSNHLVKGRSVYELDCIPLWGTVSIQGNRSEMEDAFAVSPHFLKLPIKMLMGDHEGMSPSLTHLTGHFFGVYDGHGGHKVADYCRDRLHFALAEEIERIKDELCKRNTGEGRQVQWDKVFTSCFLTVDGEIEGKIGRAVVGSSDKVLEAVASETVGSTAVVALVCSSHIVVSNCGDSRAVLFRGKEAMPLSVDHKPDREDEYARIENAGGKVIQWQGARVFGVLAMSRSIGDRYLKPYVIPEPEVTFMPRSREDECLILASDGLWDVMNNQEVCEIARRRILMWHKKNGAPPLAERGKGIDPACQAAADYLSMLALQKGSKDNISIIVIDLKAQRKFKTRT

Substance: PYR1 (from UniProt O49686)
- Kd: 0.03 µM
